{
  "source": "the RNAGym collection of RNA variant scans (doi:10.1101/gr.219683.116)",
  "parents": {"B1": {"name": "mRNA-splicing (parent)", "chain": "AGUUGCUGCUGGGAGCUCCAGCACAGUGAAAUGGACAGAAGGGCAGAGCAA"}},
  "data": [
    {"variants_of": "B1", "test": "exon inclusion enrichment index; higher = more inclusion; WT1 exon 5 minigene, HEK293", "values": [
      {"variant": "AGUUAUAUAUGGGAGCUCCACCACAGUGAAAUGGACAGAAGGGCAGAGCAA", "note": "[G5A C6U U7A G8U C9A G21C]", "exon inclusion enrichment index": 0.0844},
      {"variant": "AGUUAUAUAUGGGAGCUCCAGCACAGUGAACGGGACAGAAGGGCAGAGCAA", "note": "[G5A C6U U7A G8U C9A A31C U32G]", "exon inclusion enrichment index": 0.0628},
      {"variant": "AGUUCAUGCAGGGAGCUCCAGCACAGUGAAAUGGACAGAAGGGCAGAGCAA", "note": "[G5C C6A U10A]", "exon inclusion enrichment index": 0.116},
      {"variant": "AGUUGACGACGGGAGCUCCAGCACAGUGAAAUGGACAGAAGGGUCGAGCAA", "note": "[C6A U7C C9A U10C C44U A45C]", "exon inclusion enrichment index": 3.64},
      {"variant": "AGUUAGGGAUGGGAGCCACAGCACAGUGAAAUGGACAGAAGGGCAGAGCAA", "note": "[G5A C6G U7G C9A U17C C18A]", "exon inclusion enrichment index": 0.00107},
      {"variant": "AGUUCACACAGGGAGCUCCAGCACAGUGAAAUGGACAGAAGGGCGAAGCAA", "note": "[G5C C6A U7C G8A U10A A45G G46A]", "exon inclusion enrichment index": 0.559},
      {"variant": "ACAUAGGGAUGGGAGCUCCAGCACAGUGAAAUGGACAGAAGGGCAGAGCAA", "note": "[G2C U3A G5A C6G U7G C9A]", "exon inclusion enrichment index": 0.0159},
      {"variant": "AGUUGCUGCUGGGAGCUGCAGCACAGUGAAAUGGACAGAAGGGCAGAGCAA", "note": "[C18G]", "exon inclusion enrichment index": 0.287},
      {"variant": "AGUUGCUGCUGGGAGCUCCAGCACAGUGAAAUGGACUCAAGGGCAGAGCAA", "note": "[A37U G38C]", "exon inclusion enrichment index": 0.0886},
      {"variant": "AGUCCACGACGGGAGCUCCAGCACAGUGAAAUGGACAGAAGGGCAGAGCAA", "note": "[U4C G5C C6A U7C C9A U10C]", "exon inclusion enrichment index": 3.54},
      {"variant": "AGUUACCACCGGGAGCUCCGCCACAGUGAAAUGGACAGAAGGGCAGAGCAA", "note": "[G5A U7C G8A U10C A20G G21C]", "exon inclusion enrichment index": 2.62},
      {"variant": "AGUUUCUUUUGGGCACUCCAGCACAGUGAAAUGGACAGAAGGGCAGAGCAA", "note": "[G5U G8U C9U A14C G15A]", "exon inclusion enrichment index": 0.0209},
      {"variant": "AGUUAGGGAUGGGAGCUCCACGACAGUGAAAUGGACAGAAGGGCAGAGCAA", "note": "[G5A C6G U7G C9A G21C C22G]", "exon inclusion enrichment index": 0.00387},
      {"variant": "AGUUACCACCGGGGUCUCCAGCACAGUGAAAUGGACAGAAGGGCAGAGCAA", "note": "[G5A U7C G8A U10C A14G G15U]", "exon inclusion enrichment index": 0.925},
      {"variant": "AGUUACCGCCGGGAGCUCCAGCACAGUGAAAUGGACAGAAGGGCAGAGCAA", "note": "[G5A U7C U10C]", "exon inclusion enrichment index": 4.21},
      {"variant": "AGUUAUAUAUGGGAGCUCCAGCACAGUGAAAUUGACAGAAGGGCAGAGCAA", "note": "[G5A C6U U7A G8U C9A G33U]", "exon inclusion enrichment index": 0.00963},
      {"variant": "AGGCUCUUUUGGGAGCUCCAGCACAGUGAAAUGGACAGAAGGGCAGAGCAA", "note": "[U3G U4C G5U G8U C9U]", "exon inclusion enrichment index": 0.0275},
      {"variant": "AGUUGACGACGGGAGCUCCAGCACAGUGAAACUGACAGAAGGGCAGAGCAA", "note": "[C6A U7C C9A U10C U32C G33U]", "exon inclusion enrichment index": 2.94},
      {"variant": "AGUUCGCGCCGGGAGCUCCAGCACAGUGAAAUGGACAGAAGGGCACCGCAA", "note": "[G5C C6G U7C U10C G46C A47C]", "exon inclusion enrichment index": 2.58},
      {"variant": "AGUUGCUGCUGGGAGCUCCAGCACAGGGAAAUGGACAGAAGGGCAGAGCAA", "note": "[U27G]", "exon inclusion enrichment index": 0.0622},
      {"variant": "AGUUGACGACGGGAGCUCCAGCACAGUGAAAUGGACAGAAGGGCUCAGCAA", "note": "[C6A U7C C9A U10C A45U G46C]", "exon inclusion enrichment index": 2.51},
      {"variant": "AGUUAUAUAUGGGAGCUCUGGCACAGUGAAAUGGACAGAAGGGCAGAGCAA", "note": "[G5A C6U U7A G8U C9A C19U A20G]", "exon inclusion enrichment index": 0.00852},
      {"variant": "AGUUCACACAGGGAUAUCCAGCACAGUGAAAUGGACAGAAGGGCAGAGCAA", "note": "[G5C C6A U7C G8A U10A G15U C16A]", "exon inclusion enrichment index": 0.0461},
      {"variant": "AGUUAGGGAUGGGAGCUCCAGCACAGUGAAAUGGACGAAAGGGCAGAGCAA", "note": "[G5A C6G U7G C9A A37G G38A]", "exon inclusion enrichment index": 0.0012},
      {"variant": "AGUUGAAGAAGGGAGCUCCAGCACAGUGAAAUGGUUAGAAGGGCAGAGCAA", "note": "[C6A U7A C9A U10A A35U C36U]", "exon inclusion enrichment index": 0.00621},
      {"variant": "AGUUGCUGCUGGGGGCUCCAGCACAGUGAAAUGGACAGAAGGGCAGAGCAA", "note": "[A14G]", "exon inclusion enrichment index": 0.0948},
      {"variant": "AGUUCACACAGGGAGCUCCAGCACAGUGCGAUGGACAGAAGGGCAGAGCAA", "note": "[G5C C6A U7C G8A U10A A29C A30G]", "exon inclusion enrichment index": 0.291},
      {"variant": "AGUUCACACAGGGAGCUCCAGCACAGUGAAUCGGACAGAAGGGCAGAGCAA", "note": "[G5C C6A U7C G8A U10A A31U U32C]", "exon inclusion enrichment index": 0.293},
      {"variant": "AGUUCACACAGGGAGCUCCAGCACAGUGAAAUGGACAGAAGGGUUGAGCAA", "note": "[G5C C6A U7C G8A U10A C44U A45U]", "exon inclusion enrichment index": 0.0623},
      {"variant": "AGUUGCUGCUGGGAGCUCCAGCACCGUGAAAUGGACAGAAGGGCAGAGCAA", "note": "[A25C]", "exon inclusion enrichment index": 1.1},
      {"variant": "AAUUGACGACGGGAGCUCCAGCACAGUGAAAUGGACAGAAGGGCAGAGCAA", "note": "[G2A C6A U7C C9A U10C]", "exon inclusion enrichment index": 4.19},
      {"variant": "AGUUGCUGCUGGGAGCUCCAGCACAGUGAAAUGGACAUCAGGGCAGAGCAA", "note": "[G38U A39C]", "exon inclusion enrichment index": 0.125},
      {"variant": "AGUUGAAGAAGGGAGCUCCAGCGUAGUGAAAUGGACAGAAGGGCAGAGCAA", "note": "[C6A U7A C9A U10A A23G C24U]", "exon inclusion enrichment index": 0.189},
      {"variant": "AGUUCGCGCCGGGAGCUCCAGCACAGUGAAAGUGACAGAAGGGCAGAGCAA", "note": "[G5C C6G U7C U10C U32G G33U]", "exon inclusion enrichment index": 1.88},
      {"variant": "AGUUGCUGCUGGGAGCUCCAGCACAGUGAAAUGGACAGGCGGGCAGAGCAA", "note": "[A39G A40C]", "exon inclusion enrichment index": 0.199},
      {"variant": "AGUUUCUUUUGGGAGCUCCAUGACAGUGAAAUGGACAGAAGGGCAGAGCAA", "note": "[G5U G8U C9U G21U C22G]", "exon inclusion enrichment index": 0.103},
      {"variant": "AGUUUCUUUUGGGAGCUCCAUUACAGUGAAAUGGACAGAAGGGCAGAGCAA", "note": "[G5U G8U C9U G21U C22U]", "exon inclusion enrichment index": 0.0182},
      {"variant": "AGUUAUAUAUGGGAGCUCCAGCACCUUGAAAUGGACAGAAGGGCAGAGCAA", "note": "[G5A C6U U7A G8U C9A A25C G26U]", "exon inclusion enrichment index": 0.133},
      {"variant": "AGUUUCUUUUGGGAGCUCCAGCAGAGUGAAAUGGACAGAAGGGCAGAGCAA", "note": "[G5U G8U C9U C24G]", "exon inclusion enrichment index": 0.199},
      {"variant": "AGUUUCUUUUGGGAGCUCCAGCACAGUGAAAUGGACAGAAGGAGAGAGCAA", "note": "[G5U G8U C9U G43A C44G]", "exon inclusion enrichment index": 0.749},
      {"variant": "AGUUGACGACGGGAGCUCCAGACCAGUGAAAUGGACAGAAGGGCAGAGCAA", "note": "[C6A U7C C9A U10C C22A A23C]", "exon inclusion enrichment index": 3.88},
      {"variant": "AGUUAGGGAUGGGAGCUCCAGCACAGUGGAAUGGACAGAAGGGCAGAGCAA", "note": "[G5A C6G U7G C9A A29G]", "exon inclusion enrichment index": 0.00111},
      {"variant": "AGUUACCACCGGGAGCUCCAGCACCUUGAAAUGGACAGAAGGGCAGAGCAA", "note": "[G5A U7C G8A U10C A25C G26U]", "exon inclusion enrichment index": 2.86},
      {"variant": "AGUUUCUUUUGGGAGCUCCAGCACAGUGAAAUGGACAGGCGGGCAGAGCAA", "note": "[G5U G8U C9U A39G A40C]", "exon inclusion enrichment index": 0.128},
      {"variant": "AGUUGCUGCUGCGAGCUCCAGCACAGUGAAAUGGACAGAAGGGCAGAGCAA", "note": "[G12C]", "exon inclusion enrichment index": 1.58},
      {"variant": "AGUUUCUUUUGGGAGCUCCAGCACAGUGAAAUGGACAGACCGGCAGAGCAA", "note": "[G5U G8U C9U A40C G41C]", "exon inclusion enrichment index": 0.711},
      {"variant": "AGUUGACGACGGGAGCUCCAGCACAGUGAAAUGGACAGAAGGGCGCAGCAA", "note": "[C6A U7C C9A U10C A45G G46C]", "exon inclusion enrichment index": 3.3},
      {"variant": "AGUUCACACAGGGAGCUCCAGCACAGUGAAACGGACAGAAGGGCAGAGCAA", "note": "[G5C C6A U7C G8A U10A U32C]", "exon inclusion enrichment index": 0.292},
      {"variant": "AGUUCACACAGGGAGCUCCAGCACAGUGAAAGGGACAGAAGGGCAGAGCAA", "note": "[G5C C6A U7C G8A U10A U32G]", "exon inclusion enrichment index": 0.00606},
      {"variant": "AGUUACCACCGGGAGCUCCAGCACAGUGCCAUGGACAGAAGGGCAGAGCAA", "note": "[G5A U7C G8A U10C A29C A30C]", "exon inclusion enrichment index": 2.73},
      {"variant": "AGUUAUAUAUGGGAGCUAUAGCACAGUGAAAUGGACAGAAGGGCAGAGCAA", "note": "[G5A C6U U7A G8U C9A C18A C19U]", "exon inclusion enrichment index": 0.00112}
    ]}
  ]
}
